Values quoted from earlier work in paper PMC8069034.

Target: IL13 (Homo sapiens) (UniProt P35225)
Assay: SPR

IL13 (Homo sapiens), sequence (P35225 25-146): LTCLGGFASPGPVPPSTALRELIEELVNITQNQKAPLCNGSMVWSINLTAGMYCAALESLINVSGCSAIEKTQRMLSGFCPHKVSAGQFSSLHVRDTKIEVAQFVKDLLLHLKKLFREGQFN

Kd: 0.058 nM
Substance: tralokinumab
